These results are taken from publication PMC4832192, “Structural basis of DNA sequence recognition by the response regulator PhoP in Mycobacterium tuberculosis”.

By Kd is commonly meant a measure of binding affinity in units of concentration.

The chains are these.
B1: ahpC (dsDNA)
DNA 1: TTTGCCTGACAGCGACTTCACGGCACGATG
DNA 2: CATCGTGCCGTGAAGTCGCTGTCAGGCAAA
B2: DRs3 (3-bp spacer) (dsDNA)
DNA 1: AAGTACCTCACAGCACTTCACAGCTTTCAT
DNA 2: ATGAAAGCTGTGAAGTGCTGTGAGGTACTT
B3: DR (dsDNA)
DNA 1: ACGATTCACAGCTGATTCACAGCATCTACG
DNA 2: CGTAGATGCTGTGAATCAGCTGTGAATCGT
B4: lpqA (dsDNA)
DNA 1: GCACCTTCACCGCCCGCCCACAGCCACGCA
DNA 2: TGCGTGGCTGTGGGCGGGCGGTGAAGGTGC
B5: hisG (dsDNA)
DNA 1: CGCGACCCGCAGCATGCTCACAGCTTTCGA
DNA 2: TCGAAAGCTGTGAGCATGCTGCGGGTCGCG

The target in the first series is PhoP L113D (Mycobacterium tuberculosis, UniProt P71814 1-247, L113D). The series is described as follows: ITC; 5 mM MgCl2; ITC: 20 mM HEPES pH 7.5, 100 mM NaCl, 5 mM MgCl2, 25 C, […]. To be noted: protein: recombinant; tags: N-terminal His-tag removed with TEV; chain copies: 2.
On to B1, for which the Kd amounted to 595 ± 51.4 nM.
With B2, the Kd is 368 ± 52.2 nM.
The same measure, in the same setting: then B3, with 26.2 ± 6.5 nM.
Still for that read-out and setting: the figure for B4 is 2870 ± 541 nM; for B5 it is 117 ± 11.7 nM.

Another series addresses PhoP Y205A (Mycobacterium tuberculosis, UniProt P71814 1-247, Y205A). The series is described as above. To be noted: protein: recombinant; tags: N-terminal His-tag removed with TEV; chain copies: 2.
Take B1: the equilibrium dissociation constant (Kd) was found to be 654 ± 57.2 nM.
On the same count and under the same terms, then B3, with 21.8 ± 6.2 nM; and B4, with 3080 ± 371 nM.
For the molecule B5, the equilibrium dissociation constant (Kd) was 114 ± 11.2 nM.
